This passage reports stoichiometry N results from article PMC10585004.

For the assay, the target named is Bovine Thyroglobulin (Sigma-T1001) (bovine) (UniProt P01267). The experiment in a line: SAXS; XFEL small-angle scattering, liquid jet (GDVN) with reservoir delivery, thyroglobulin 0.7 mg/ml in PBS; experimental form factor compared with the profile computed (CRYSOL) from the cryo-EM dimer model.

The substance “Bovine Thyroglobulin (Sigma-T1001), P01267 20-2769” came in with a stoichiometry N of 2.

In general, stoichiometry N refers to the number of molecules, sites or subunits per partner or assembly.
